Laboratory results as given in PMC3429642.

Target: Full-length DEMETER (DME) fused with the GAL4 DNA binding domain (Arabidopsis) (UniProt Q8LK56)
Assay: two-hybrid

UniProt Q8LK56, sequence (Q8LK56 whole entry, the tested form may be a part): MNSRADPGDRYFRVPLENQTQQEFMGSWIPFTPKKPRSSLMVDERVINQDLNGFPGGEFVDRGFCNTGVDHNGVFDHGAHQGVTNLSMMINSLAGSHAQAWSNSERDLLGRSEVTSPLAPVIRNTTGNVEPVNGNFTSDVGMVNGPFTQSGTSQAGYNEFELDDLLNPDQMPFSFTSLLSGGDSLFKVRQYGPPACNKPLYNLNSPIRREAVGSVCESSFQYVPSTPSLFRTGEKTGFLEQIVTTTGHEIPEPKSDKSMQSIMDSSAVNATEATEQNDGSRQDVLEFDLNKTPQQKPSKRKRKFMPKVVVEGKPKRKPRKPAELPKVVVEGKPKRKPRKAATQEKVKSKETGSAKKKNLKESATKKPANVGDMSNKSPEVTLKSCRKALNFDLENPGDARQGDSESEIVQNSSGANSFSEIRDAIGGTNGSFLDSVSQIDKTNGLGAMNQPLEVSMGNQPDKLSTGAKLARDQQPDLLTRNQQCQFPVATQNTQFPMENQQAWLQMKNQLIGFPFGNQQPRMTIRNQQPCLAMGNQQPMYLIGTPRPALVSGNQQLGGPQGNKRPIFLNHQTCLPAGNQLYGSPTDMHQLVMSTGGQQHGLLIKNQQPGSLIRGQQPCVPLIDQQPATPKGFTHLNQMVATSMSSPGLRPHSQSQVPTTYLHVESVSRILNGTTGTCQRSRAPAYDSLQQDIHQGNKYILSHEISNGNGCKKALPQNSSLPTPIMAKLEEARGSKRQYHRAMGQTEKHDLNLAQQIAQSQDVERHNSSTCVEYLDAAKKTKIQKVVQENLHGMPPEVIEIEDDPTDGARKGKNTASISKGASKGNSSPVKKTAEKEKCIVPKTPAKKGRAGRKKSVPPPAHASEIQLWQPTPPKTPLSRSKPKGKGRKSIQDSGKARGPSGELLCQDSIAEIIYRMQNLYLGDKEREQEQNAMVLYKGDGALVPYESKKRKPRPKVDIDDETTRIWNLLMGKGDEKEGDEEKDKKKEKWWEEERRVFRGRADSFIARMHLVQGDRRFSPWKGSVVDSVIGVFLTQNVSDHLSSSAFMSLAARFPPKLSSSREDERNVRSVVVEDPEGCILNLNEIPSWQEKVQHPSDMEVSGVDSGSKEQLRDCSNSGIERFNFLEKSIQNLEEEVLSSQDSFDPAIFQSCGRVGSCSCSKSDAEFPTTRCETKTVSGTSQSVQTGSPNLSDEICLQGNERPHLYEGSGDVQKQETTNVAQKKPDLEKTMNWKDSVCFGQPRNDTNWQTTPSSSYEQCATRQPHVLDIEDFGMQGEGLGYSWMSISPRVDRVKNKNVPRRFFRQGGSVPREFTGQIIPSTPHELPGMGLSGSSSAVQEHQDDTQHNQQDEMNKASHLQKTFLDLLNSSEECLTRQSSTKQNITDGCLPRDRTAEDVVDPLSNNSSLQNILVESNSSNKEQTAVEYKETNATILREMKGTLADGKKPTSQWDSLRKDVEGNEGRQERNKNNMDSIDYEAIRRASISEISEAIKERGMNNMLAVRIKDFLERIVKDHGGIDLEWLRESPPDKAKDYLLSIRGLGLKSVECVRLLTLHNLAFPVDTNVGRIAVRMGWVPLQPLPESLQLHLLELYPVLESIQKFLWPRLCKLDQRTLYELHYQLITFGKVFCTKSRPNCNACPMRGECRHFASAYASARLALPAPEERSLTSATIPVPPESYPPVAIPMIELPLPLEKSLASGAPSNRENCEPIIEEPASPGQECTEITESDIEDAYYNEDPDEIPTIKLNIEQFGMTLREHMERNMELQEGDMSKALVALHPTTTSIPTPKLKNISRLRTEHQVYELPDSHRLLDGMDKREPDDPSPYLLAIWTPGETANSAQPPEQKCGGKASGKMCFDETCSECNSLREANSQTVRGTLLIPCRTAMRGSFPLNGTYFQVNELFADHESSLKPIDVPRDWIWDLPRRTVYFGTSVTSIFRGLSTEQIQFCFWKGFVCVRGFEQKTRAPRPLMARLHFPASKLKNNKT

β-galactosidase activity: 1.67 units
Substance: Histone H1.2 fused with the GAL4 activation domain (natural protein)
